The source of these data is publication PMC6118392, “VapC proteins from Mycobacterium tuberculosis share ribonuclease sequence specificity but differ in regulation and toxicity” (PLoS ONE, 2018).

The data set “SEC” concerns the molecule itself. Description: SEC. A general note: SEC sorts molecules by how far they enter the pores of the column.
A further data set deals with T1, VapB29;VapC29 (Mycobacterium tuberculosis …, UniProt P9WJ37;P9WF79 1-75;1-133, |).
T1 sequence 1: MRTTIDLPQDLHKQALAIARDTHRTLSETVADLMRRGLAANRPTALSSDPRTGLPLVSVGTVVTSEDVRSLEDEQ
T1 sequence 2: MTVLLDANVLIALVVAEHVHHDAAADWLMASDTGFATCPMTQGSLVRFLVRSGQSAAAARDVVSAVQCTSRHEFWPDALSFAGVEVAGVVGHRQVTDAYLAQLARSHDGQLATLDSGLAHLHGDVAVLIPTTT
Description: EMSA. Particulars: protein: recombinant;recombinant; tags: ;C-terminal His; label: 3' DIG-ddUTP; blunt. In general terms: In EMSA bound probe runs differently from free probe, usually more slowly.

B1: VapBC19 heterodimer (complex)
chain 1: MRTQVTLGKEELELLDRAAKASGASRSELIRRAIHRAYGTGSKQERLAALDHSRGSWRGRDFTGTEYVDAIRGDLNERLARLGLA
chain 2: MKLIDTTIAVDHLRGEPAAAVLLAELINNGEEIAASELVRFELLAGVRESELAALEAFFSAVVWTLVTEDIARIGGRLARRYRSSHRGIDDVDYLIAATAIVVDADLLTTNVRHFPMFPDLQPPY
notes: VapB19 antitoxin of Mycobacterium tuberculosis, gene Rv2547; as m3; VapC19 toxin of Mycobacterium tuberculosis, gene Rv2548; as m4; also called Rv2547/Rv2548
On to B1, for which the “stoichiometry N” value in the data set “SEC” was 3.61 VapBC heterodimers per complex.

B2: VapBC1 heterodimer (complex)
chain 1: MATIQVRDLPEDVAETYRRRATAAGQSLQTYMRTKLIEGVRGRDKAEAIEILEQALASTASPGISRETIEASRRELRGG
chain 2: MDECVVDAAAVVDALAGKGASAIVLRGLLKESISNAPHLLDAEVGHALRRAVLSDEISEEQARAALDALPYLIDNRYPHSPRLIEYTWQLRHNVTFYDALYVALATALDVPLLTGDSRLAAAPGLPCEIKLVR
notes: VapB1 antitoxin of Mycobacterium tuberculosis, gene Rv0064a; as m1; VapC1 toxin of Mycobacterium tuberculosis, gene Rv0065; as m2; also called Rv0064a/Rv0065
For the molecule B2, in “SEC”, the “stoichiometry N” value is 5.6 VapBC heterodimers per complex.

B3: VapBC29 heterodimer (complex)
chain 1: T1 sequence 1
chain 2: T1 sequence 2
notes: VapB29 antitoxin of Mycobacterium tuberculosis, gene Rv0616a; as m7; VapC29 toxin of Mycobacterium tuberculosis, gene Rv0617; as m8; also called Rv0616a/Rv0617
In the case of B3, the “stoichiometry N” value in the data set “SEC” is 5 VapBC heterodimers per complex.

B4: Oligo 5 Bind 3 (Mut. 3) (dsDNA)
DNA 1: GGTGAGCGTCGGCGCGAAAAAAACGATGCAGCGATGTTAGGATGAGGCGG
DNA 2: CCGCCTCATCCTAACATCGCTGCATCGTTTTTTTCGCGCCGACGCTCACC
Regarding B4, in the data set with VapB29;VapC29, the binding result is given as “no binding”.

B5: Oligo 5 Bind 5 (Mut. 5) (dsDNA)
DNA 1: GGTGAGCGTCGGCGCGCGCATCACGATGCAAAAAAATTAGGATGAGGCGG
DNA 2: CCGCCTCATCCTAATTTTTTTGCATCGTGATGCGCGCGCCGACGCTCACC
Consider B5, for which, in the data set with VapB29;VapC29, the binding result is given as “no binding”.

B6: VapBC39 heterodimer (complex)
chain 1: MRTTLQIDDDVLEDARSIARSEGKSVGAVISELARRSLRPVGIVEVDGFPVFDVPPDAPTVTSEDVVRALEDDV
chain 2: MTALLDVNVLIALGWPNHVHHAAAQRWFTQFSSNGWATTPITEAGYVRISSNRSVMQVSTTPAIAIAQLAAMTSLAGHTFWPDDVPLIVGSAGDRDAVSNHRRVTDCHLIALAARYGGRLVTFDAALADSASAGLVEVL
notes: VapB39 antitoxin of Mycobacterium tuberculosis, gene Rv2530a; as m9; VapC39 toxin of Mycobacterium tuberculosis, gene Rv2530c; as m10; also called Rv2530a/Rv2530c
In the case of B6, the “stoichiometry N” value in “SEC” is 4.9 VapBC heterodimers per complex.
